Experimental data from publication PMC12744750 (Plant Communications, 2025).
Each block holds one molecule with its values, some of them ahead of it. Ends that are not written are not given here.

B1: PLS linked to a C-terminal GFP (PLS:GFP), pro35S::PLS:GFP (peptide, UniProt Q8LLV8 1-36, looked up)
chain: MKPRLCFNFRRRSISPCYISISYLLVAKLFKLFKIH-{GFP}
modifications: cysteine pairing not given here
notes: POLARIS (PLS) peptide of Arabidopsis thaliana, gene AT4G39403; the PLS gene without the stop codon (printed as 105 bp) in pEarlyGate103; source: N. benthamiana leaves, transient expression by Agrobacterium infiltration, in protein extract; not shown: GFP, C-terminal, kept
B2: ETR1 with a C-terminal HA tag (ETR1:HA), pro35S::ETR1:HA (receptor, Arabidopsis, UniProt P49333 1-738, looked up)
chain: MEVCNCIEPQWPADELLMKYQYISDFFIAIAYFSIPLELIYFVKKSAVFPYRWVLVQFGAFIVLCGATHLINLWTFTTHSRTVALVMTTAKVLTAVVSCATALMLVHIIPDLLSVKTRELFLKNKAAELDREMGLIRTQEETGRHVRMLTHEIRSTLDRHTILKTTLVELGRTLALEECALWMPTRTGLELQLSYTLRHQHPVEYTVPIQLPVINQVFGTSRAVKISPNSPVARLRPVSGKYMLGEVVAVRVPLLHLSNFQINDWPELSTKRYALMVLMLPSDSARQWHVHELELVEVVADQVAVALSHAAILEESMRARDLLMEQNVALDLARREAETAIRARNDFLAVMNHEMRTPMHAIIALSSLLQETELTPEQRLMVETILKSSNLLATLMNDVLDLSRLEDGSLQLELGTFNLHTLFREVLNLIKPIAVVKKLPITLNLAPDLPEFVVGDEKRLMQIILNIVGNAVKFSKQGSISVTALVTKSDTRAADFFVVPTGSHFYLRVKVKDSGAGINPQDIPKIFTKFAQTQSLATRSSGGSGLGLAISKRFVNLMEGNIWIESDGLGKGCTAIFDVKLGISERSNESKQSGIPKVPAIPRHSNFTGLKVLVMDENGVSRMVTKGLLVHLGCEVTTVSSNEECLRVVSHEHKVVFMDVCMPGVENYQIALRIHEKFTKQRHQRPLLVALSGNTDKSTKEKCMSFGLDGVLLKPVSLDNIRDVLSDLLEPRVLYEGM
notes: the ETR1 cDNA in pEarlyGate301; also called ETHYLENE RESPONSE 1; source: N. benthamiana leaves, transient expression by Agrobacterium infiltration, in protein extract; not shown: HA, C-terminal, kept

Tests used:
pPLS::PLS:GFP = experiment: PLS:GFP fluorescence in root tip after ACC treatment; assay type: in vivo, Arabidopsis; conditions: 0, 1 or 10 μM ACC, 2 or 24 hours, n = 17
Description: Figur e S15. The link between auxin and ethylene signalling effects on PLS transcription, and downstr eam effects on […]
in the root tip after ACC treatment. […]
Laser settings were mai nt ai ned at 21% 488 nm 20 mW, 970 V gain.
Images are representative of 10 independetly grown roots. Scale bars […]
Lower panel: Quanti fi cati on of PLS-GFP fluorescence after ACC treatment, detected in seedlings expressing the pPLS::PLS:GFP construct. Seedling root tips at seven d.a.g were imaged by CLSM after treatment with 0, 1 or 10 μM ACC for either 2 or 24 hours.
Fl uorescence intensity in each root was measured using ImageJ and the mean intensity for each treatment was calculated. Error bars show
± 1 standard error, n = 17.

pPLS::GUS = pPLS::GUS expression in root tips after hormone treatment; assay type: in vivo, Arabidopsis; conditions: 10 µM ACC plus 10 μM 2,4-D
Description: Figure S15. The link between auxi n and et hyl ene si gnal l i ng ef f ect s on PLS transcription, and downstream ef f ect s on et hyl ene responses.
(A) Ant agoni sm between auxi n and et hyl ene on PLS expressi on.
Auxin posit ively regulates PLS gene transcription, whi l e ACC (ethylene pr ecur sor ) […]
Lef t upper panel: pPLS::GUS […]
expr ession in the Arabidopsis root tip under standard gr owt h conditions. Lef t lower panel: pPLS::PLS:GFP expr ession in the Arabidopsis root tip under standard gr owt h conditions.
Ri ght panel: pPLS::GUS expr ession in root tips treated wi t h 10 μM 2,4-D, showing ect opic […]
10 μM 2,4-D plus 10 μm ACC, showing the ant agonism of the inductive eff ect of 2,4-D on PLS::GUS expr ession. Images ar e representative of 10 independently gr own roots. […]

[1] = target: B2; experiment: co-IP; anti-HA beads on protein extract of N. benthamiana leaves co-expressing ETR1:HA and PLS:GFP or GFP, 3 days after infiltration; blot with anti-GFP; with 0.5 μM CuSO4 or 2 mM EDTA added to the extract; conditions: partners not purified
ETR1 1-307 = target: T1, ETR1 1-307 (Arabidopsis thaliana); experiment: MST
T1 chain: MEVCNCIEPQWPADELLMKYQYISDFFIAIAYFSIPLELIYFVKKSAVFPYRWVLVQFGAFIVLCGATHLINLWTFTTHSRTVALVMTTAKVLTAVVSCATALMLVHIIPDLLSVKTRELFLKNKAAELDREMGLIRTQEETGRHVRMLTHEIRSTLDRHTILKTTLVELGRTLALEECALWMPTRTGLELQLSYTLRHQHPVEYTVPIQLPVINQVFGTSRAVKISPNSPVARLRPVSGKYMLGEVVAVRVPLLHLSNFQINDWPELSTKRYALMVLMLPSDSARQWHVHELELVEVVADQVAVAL

ETR1 1-598 = target: T2, ETR1 1-598 (Arabidopsis thaliana); experiment: MST
T2 chain: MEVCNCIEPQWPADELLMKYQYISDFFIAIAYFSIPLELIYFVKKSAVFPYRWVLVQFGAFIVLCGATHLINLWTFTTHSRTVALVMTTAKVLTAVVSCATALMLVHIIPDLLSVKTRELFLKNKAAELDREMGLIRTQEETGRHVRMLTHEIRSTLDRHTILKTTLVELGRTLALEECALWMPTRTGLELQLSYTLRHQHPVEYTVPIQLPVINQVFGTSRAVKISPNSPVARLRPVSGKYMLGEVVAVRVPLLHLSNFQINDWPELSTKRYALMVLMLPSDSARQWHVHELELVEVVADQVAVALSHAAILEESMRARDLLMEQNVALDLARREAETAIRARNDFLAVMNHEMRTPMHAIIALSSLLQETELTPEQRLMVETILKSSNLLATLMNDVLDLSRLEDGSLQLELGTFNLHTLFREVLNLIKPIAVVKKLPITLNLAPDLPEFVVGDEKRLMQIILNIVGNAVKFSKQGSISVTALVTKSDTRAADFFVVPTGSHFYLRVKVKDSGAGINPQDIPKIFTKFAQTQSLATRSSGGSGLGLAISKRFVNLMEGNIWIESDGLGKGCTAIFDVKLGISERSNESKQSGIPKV

ETR1 1-407 = target: T3, ETR1 1-407 (Arabidopsis thaliana); experiment: MST
T3 chain: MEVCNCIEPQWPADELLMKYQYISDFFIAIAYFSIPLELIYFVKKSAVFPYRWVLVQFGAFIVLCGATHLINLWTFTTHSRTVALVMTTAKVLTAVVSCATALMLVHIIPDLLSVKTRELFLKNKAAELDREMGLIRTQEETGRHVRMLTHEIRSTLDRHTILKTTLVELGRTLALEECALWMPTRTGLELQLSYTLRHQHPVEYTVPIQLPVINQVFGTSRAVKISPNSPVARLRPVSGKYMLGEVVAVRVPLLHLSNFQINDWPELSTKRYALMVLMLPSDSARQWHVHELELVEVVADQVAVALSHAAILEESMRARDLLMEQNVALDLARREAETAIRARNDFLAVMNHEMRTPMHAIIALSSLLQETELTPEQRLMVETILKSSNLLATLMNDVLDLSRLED

ETR1 1-157 = target: T4, ETR1 1-157 (Arabidopsis thaliana); experiment: MST
T4 chain: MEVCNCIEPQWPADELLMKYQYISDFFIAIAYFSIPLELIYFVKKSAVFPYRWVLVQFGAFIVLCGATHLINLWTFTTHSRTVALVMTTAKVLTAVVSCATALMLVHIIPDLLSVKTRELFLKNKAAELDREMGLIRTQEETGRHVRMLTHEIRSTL

[2] = target: B1; experiment: co-IP; anti-GFP beads on protein extract of N. benthamiana leaves co-expressing PLS:GFP and ETR1:HA; blot with anti-HA; with or without EDTA; conditions: partners not purified

Molecule: NC1(C(=O)O)CC1 [ACC, 1-aminocyclopropane-1-carboxylic acid]
expression of PLS:GFP in root tip (pPLS::PLS:GFP): downr egulated | effect on auxin-induced PLS expression (pPLS::GUS): ant agonizes the inductive eff ect s of auxin

Molecule: B1
fold co-precipitated with 0.5 μM copper sulfate against 2 mM EDTA [1]: ~3 fold

Kd (ETR1 1-307): 1780 nM | Kd (ETR1 1-598): 2920 nM | Kd (ETR1 1-407): 1650 nM | Kd (ETR1 1-157): 1520 nM
Molecule: MKPRLCFNFRRRSISPCYISISYLLVAKLFKLFKIH (cysteine pairing not given here; also: fluorescently labelled) [synthetic full-length POLARIS (PLS) peptide, PLS(FL)]

Molecule: B2
fold co-precipitated with 0.5 μM copper sulfate against 2 mM EDTA [2]: ~3 fold
